Assay results reported in IntAct's records for PubMed 31515488.

B1: Peroxisomal membrane protein 11C (Homo sapiens), Q96HA9 (parent)
chain: MASLSGLASALESYRGRDRLIRVLGYCCQLVGGVLVEQCPARSEVGTRLLVVSTQLSHCRTILRLFDDLAMFVYTKQYGLGAQEEDAFVRCVSVLGNLADQLYYPCEHVAWAADARVLHVDSSRWWTLSTTLWALSLLLGVARSLWMLLKLRQRLRSPTAPFTSPLPRGKRRAMEAQMQSEALSLLSNLADLANAVHWLPRGVLWAGRFPPWLVGLMGTISSILSMYQAARAGGQAEATTP
partner: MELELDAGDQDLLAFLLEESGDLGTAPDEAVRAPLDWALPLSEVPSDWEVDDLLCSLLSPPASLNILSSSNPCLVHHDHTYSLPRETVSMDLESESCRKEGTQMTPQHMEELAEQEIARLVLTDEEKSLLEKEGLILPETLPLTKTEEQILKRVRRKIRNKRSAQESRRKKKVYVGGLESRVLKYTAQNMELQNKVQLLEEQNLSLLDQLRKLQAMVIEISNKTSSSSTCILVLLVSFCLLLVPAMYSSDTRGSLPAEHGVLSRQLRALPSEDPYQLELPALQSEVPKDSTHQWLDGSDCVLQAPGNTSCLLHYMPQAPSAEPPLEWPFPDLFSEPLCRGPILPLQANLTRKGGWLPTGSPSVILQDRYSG
B2: LHFPL tetraspan subfamily member 5 protein (Homo sapiens), Q8TAF8 (parent)
chain: MVKLLPAQEAAKIYHTNYVRNSRAVGVMWGTLTICFSVLVMALFIQPYWIGDSVNTPQAGYFGLFSYCVGNVLSSELICKGGPLDFSSIPSRAFKTAMFFVALGMFLIIGSIICFSLFFICNTATVYKICAWMQLAAATGLMIGCLVYPDGWDSSEVRRMCGEQTGKYTLGHCTIRWAFMLAILSIGDALILSFLAFVLGYRQDKLLPDDYKADGTEEV
partner: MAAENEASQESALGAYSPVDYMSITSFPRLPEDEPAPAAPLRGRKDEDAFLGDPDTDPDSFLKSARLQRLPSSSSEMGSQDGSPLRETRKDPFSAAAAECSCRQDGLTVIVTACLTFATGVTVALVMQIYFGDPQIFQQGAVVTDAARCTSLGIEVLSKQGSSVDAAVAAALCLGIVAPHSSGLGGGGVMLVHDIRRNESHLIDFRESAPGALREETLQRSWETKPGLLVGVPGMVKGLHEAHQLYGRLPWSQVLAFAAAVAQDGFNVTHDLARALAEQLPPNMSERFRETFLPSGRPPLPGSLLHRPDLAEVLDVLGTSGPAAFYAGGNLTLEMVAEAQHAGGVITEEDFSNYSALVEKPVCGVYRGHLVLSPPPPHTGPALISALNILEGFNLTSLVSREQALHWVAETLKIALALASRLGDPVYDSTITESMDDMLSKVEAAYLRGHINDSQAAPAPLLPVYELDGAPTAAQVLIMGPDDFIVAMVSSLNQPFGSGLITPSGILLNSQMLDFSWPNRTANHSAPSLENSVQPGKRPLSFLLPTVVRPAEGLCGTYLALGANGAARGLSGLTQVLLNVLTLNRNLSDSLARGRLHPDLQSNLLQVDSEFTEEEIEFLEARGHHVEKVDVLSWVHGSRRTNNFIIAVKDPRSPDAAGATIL
B3: Cyclin-dependent kinase 4 inhibitor D (Homo sapiens), P55273 (parent)
chain: MLLEEVRAGDRLSGAAARGDVQEVRRLLHRELVHPDALNRFGKTALQVMMFGSTAIALELLKQGASPNVQDTSGTSPVHDAARTGFLDTLKVLVEHGADVNVPDGTGALPIHLAVQEGHTAVVSFLAAESDLHRRDARGLTPLELALQRGAQDLVDILQGHMVAPL
partner: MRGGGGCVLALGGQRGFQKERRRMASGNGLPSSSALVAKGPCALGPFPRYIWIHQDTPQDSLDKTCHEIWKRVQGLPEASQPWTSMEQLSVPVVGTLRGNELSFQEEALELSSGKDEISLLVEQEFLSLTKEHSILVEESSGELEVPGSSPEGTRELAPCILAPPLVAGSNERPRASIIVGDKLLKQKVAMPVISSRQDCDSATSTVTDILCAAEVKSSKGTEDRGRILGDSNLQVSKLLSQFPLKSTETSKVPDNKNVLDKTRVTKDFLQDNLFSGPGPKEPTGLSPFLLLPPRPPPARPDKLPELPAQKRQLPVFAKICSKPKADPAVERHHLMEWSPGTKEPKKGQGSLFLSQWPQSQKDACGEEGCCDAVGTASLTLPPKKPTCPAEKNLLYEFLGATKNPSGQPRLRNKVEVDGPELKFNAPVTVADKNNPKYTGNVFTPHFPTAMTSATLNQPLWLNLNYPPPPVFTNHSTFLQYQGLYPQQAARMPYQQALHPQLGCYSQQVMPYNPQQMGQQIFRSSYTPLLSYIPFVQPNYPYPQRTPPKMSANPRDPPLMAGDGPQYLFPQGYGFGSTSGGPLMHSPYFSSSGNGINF
B4: Protein BANP (Homo sapiens), Q8N9N5-2 (parent)
chain: MMSEHDLADVVQIAVEDLSPDHPVVLENHVVTDEDEPALKRQRLEINCQDPSIKSFLYSINQTICLRLDSIEAKLQALEATCKSLEEKLDLVTNKQHSPIQVPMVAGSPLGATQTCNKVRCAVPGRRQNTIVVKVPGQEDSHHEDGESGSEASDSVSSCGQAGSQSIGSNVTLITLNSEEDYPNGTWLGDENNPEMRVRCAIIPSDMLHISTNCRTAEKMALTLLDYLFHREVQAVSNLSGQGKHGKKQLDPLTIYGIRCHLFYKFGITESDWYRIKQSIDSKCRTAWRRKQRGQSLAVKSFSRRTPNSSSYCPSEPMMSTPPPASELPQPQPQPQALHYALANAQQVQIHQIGEDGQVQVIPQGHLHIAQVPQGEQVQITQDSEGNLQIHHVGQDGQVLQGAQLIAVASSDPAAAGVDGSPLQGSDIQVQYVQLAPVSDHTAGAQTAEALQPTLQPEMQLEHGAIQIQ
partner: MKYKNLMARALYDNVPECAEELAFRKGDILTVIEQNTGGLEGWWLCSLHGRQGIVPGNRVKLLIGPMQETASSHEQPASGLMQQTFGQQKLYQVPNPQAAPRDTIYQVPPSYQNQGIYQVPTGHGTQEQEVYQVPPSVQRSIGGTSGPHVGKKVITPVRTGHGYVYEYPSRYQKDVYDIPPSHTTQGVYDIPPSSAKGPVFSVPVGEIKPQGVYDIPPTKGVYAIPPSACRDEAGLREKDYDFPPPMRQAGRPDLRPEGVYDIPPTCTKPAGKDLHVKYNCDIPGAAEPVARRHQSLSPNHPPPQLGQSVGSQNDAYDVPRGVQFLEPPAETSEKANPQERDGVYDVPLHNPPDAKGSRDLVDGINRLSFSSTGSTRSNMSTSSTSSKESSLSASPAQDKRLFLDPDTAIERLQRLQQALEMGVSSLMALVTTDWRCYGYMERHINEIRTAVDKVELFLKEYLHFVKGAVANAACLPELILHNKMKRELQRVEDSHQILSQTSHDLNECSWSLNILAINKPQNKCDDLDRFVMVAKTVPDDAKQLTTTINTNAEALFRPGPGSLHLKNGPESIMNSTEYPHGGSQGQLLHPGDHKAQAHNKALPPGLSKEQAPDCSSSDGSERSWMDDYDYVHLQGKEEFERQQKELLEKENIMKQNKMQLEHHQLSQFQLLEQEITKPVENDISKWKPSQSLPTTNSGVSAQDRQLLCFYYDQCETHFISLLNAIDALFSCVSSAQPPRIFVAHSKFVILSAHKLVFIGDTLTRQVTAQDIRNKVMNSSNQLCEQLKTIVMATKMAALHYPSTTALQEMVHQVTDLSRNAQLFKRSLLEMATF
B5: Retinoic acid receptor alpha (Homo sapiens), P10276 (parent)
chain: MASNSSSCPTPGGGHLNGYPVPPYAFFFPPMLGGLSPPGALTTLQHQLPVSGYSTPSPATIETQSSSSEEIVPSPPSPPPLPRIYKPCFVCQDKSSGYHYGVSACEGCKGFFRRSIQKNMVYTCHRDKNCIINKVTRNRCQYCRLQKCFEVGMSKESVRNDRNKKKKEVPKPECSESYTLTPEVGELIEKVRKAHQETFPALCQLGKYTTNNSSEQRVSLDIDLWDKFSELSTKCIIKTVEFAKQLPGFTTLTIADQITLLKAACLDILILRICTRYTPEQDTMTFSDGLTLNRTQMHNAGFGPLTDLVFAFANQLLPLEMDDAETGLLSAICLICGDRQDLEQPDRVDMLQEPLLEALKVYVRKRRPSRPHMFPKMLMKITDLRSISAKGAERVITLKMEIPGSMPPLIQEMLENSEGLDTLSGQPGGGGRDGGGLAPPPGSCSPSLSPSSNRSSPATHSP
partner: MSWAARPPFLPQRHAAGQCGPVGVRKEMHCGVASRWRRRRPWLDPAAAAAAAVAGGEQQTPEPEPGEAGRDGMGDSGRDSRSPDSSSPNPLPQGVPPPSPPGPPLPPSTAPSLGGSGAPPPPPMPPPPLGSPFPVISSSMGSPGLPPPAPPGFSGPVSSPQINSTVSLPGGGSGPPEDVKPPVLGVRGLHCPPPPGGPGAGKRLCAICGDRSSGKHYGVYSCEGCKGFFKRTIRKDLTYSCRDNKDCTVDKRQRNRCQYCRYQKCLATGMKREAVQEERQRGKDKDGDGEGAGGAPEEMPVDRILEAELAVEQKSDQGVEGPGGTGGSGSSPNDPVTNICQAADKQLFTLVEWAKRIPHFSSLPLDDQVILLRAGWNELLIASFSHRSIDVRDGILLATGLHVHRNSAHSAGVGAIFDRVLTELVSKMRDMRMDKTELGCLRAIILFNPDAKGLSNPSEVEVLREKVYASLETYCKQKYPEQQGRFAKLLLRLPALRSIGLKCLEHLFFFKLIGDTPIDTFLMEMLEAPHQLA

Variants of: B1
Settings: with creb3_human CREB3, O43889

Row | effect of a mutation on the interaction | Variant
1 | with no effect | C91W

Variants of: B2
Settings: with ggt7_human GGT7, Q9UJ14

Row | effect of a mutation on the interaction | Variant
2 | with no effect | K205N

Variants of: B3
Settings: with ca094_human C1orf94, Q6P1W5

Row | effect of a mutation on the interaction | Variant
3 | with no effect | P142S

Variants of: B4
Settings: with casl_human NEDD9, Q14511

Row | effect of a mutation on the interaction | Variant
4 | with no effect | A162V

Variants of: B5
Settings: with rxrb_human RXRB

Row | effect of a mutation on the interaction | Variant
5 | with no effect | P318R
